Measurements taken from patent publication US20250145697A1 (WASHINGTON UNIVERSITY, published 2025).
Residue numbers refer to the chain shown, from its start.

T1: ApoE4 amino acids 1-164, expressed on yeast (human, UniProt P02649 19-182)
T1 construct: with myc tag, on yeast cells; range counts on the mature protein; also called up to helix 4; not shown: myc tag and yeast surface-display partner
T1 chain: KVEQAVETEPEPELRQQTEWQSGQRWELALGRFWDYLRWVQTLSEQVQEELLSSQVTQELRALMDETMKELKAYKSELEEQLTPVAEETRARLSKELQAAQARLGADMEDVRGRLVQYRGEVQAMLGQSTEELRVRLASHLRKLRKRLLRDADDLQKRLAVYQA

T2: ApoE4 amino acids 1-210, expressed on yeast (human, UniProt P02649 19-228)
T2 construct: with myc tag, on yeast cells; range counts on the mature protein; also called N terminal domain; not shown: myc tag and yeast surface-display partner
T2 chain: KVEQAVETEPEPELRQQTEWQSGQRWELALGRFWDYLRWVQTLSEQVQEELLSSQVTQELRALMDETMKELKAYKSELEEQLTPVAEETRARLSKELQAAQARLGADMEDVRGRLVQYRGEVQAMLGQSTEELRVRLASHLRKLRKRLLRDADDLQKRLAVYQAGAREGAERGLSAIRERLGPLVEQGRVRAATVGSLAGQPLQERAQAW

T3: ApoE4 amino acids 24-164, expressed on yeast (human, UniProt P02649 42-182)
T3 construct: with myc tag, on yeast cells; range counts on the mature protein; also called helix1 + 2 + 3 + 4
T3 chain: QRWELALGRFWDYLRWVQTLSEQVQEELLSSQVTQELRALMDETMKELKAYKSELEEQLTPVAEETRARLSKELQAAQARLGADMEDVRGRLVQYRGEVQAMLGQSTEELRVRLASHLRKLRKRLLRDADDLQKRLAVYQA

T4: ApoE4 amino acids 54-164, expressed on yeast (human, UniProt P02649 72-182)
T4 construct: with myc tag, on yeast cells; expression in yeast printed as Low; range counts on the mature protein; also called helix2 + 3 + 4
T4 chain: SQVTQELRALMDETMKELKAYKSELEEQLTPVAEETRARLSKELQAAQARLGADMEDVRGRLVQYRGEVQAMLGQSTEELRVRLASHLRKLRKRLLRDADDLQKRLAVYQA

B1: HJ151 (antibody, V domains shown)
VH: QVQLQQSGAELVRPGASVTLSCKASGYTFTDYEMHWVKQTPVHGLEWIGVIDPEKGGTAYNQKFKGKAILTADKSSSTAYMDLRSLTSEDSAVYYCLKDSWGQGTTLTVSS
VL: DVLMTQTPLSLPVSLGDQASISCRSSQTIVHSDGNTYLEWYLQKPGQSPKLLIYKVSNRFSGVPDRFSGSGSGTYFTLKISRVEAEDLGVYYCFQGSHVPCTFGGGTKLEIKR
notes: murine monoclonal antibody from hybridoma; also called HJ151B (biotinylated)
B2: HJ156 (antibody, V domains shown)
VH: QVQLQQSGPELVKPGASVKISCKASGYIFTDYYINWVKRRPGQGLEWIGWIFPGSGVSYYNEQFKGKATLTVDKPSNTAYIFLSRLTSEDSAVYFCARYYSSSPFAYWGQGTLVTVSA
VL: B1 VL with T28N, V30I, D33N, Y41F, K44R, K50E, Y75D, C101Y
notes: murine monoclonal antibody from hybridoma; also called HJ156B (biotinylated)
B3: HJ154 (antibody, V domains shown)
VH: QVQLQQPGTEFVMSGASVMLSCKASGYIFTNYWLHWVKQRPGHGLEWIGEIDPSDSYSICNDNFKGKSTLTVDKSSSTAYMQLSSLTSEDSAVYYCAGSLGRVGLAYWGQGTLVTVST
VL: QIVLTQSPAIMSASPGEKVTMSCSASSSVSNMYWYQQKPGSSPKSWIYRTSNLASGVPARFSGSGSGTSYSLTISNMEAEDAATYYCQHYQNYPLTFGAGTKLELKR
notes: murine monoclonal antibody from hybridoma; also called HJ154B (biotinylated)

Target: T1, ApoE4 amino acids 1-164, expressed on …
Assay: yeast display of myc-tagged ApoE4 fragment, antibody staining
Protocol: (§1) Epitope binding of various anti-ApoE antibodies was evaluated multiple ways. Different sequences of human ApoE were expressed on the surface of yeast by yeast display using different plasmids. Different anti-ApoE antibodies were then assessed to determine binding to the different ApoE sequences by immunofluorescence of the yeast cell surface (Table 4). Because none of the anti-ApoE antibodies tested here recognize murine ApoE, the epitope was further narrowed down by comparison of the murine and human ApoE sequences as shown in Tables 4 and 5. DNA constructs containing different regions of ApoE4 with myc tag were transformed into yeast cells. Yeast cells were incubated with HJ15x to detect binding or anti-myc antibody to detect expression.

binding result | Binder
binds | B1
binds | B2
binds | B3

Target: T2, ApoE4 amino acids 1-210, expressed on …
Assay: as above
Protocol: as §1

binding result | Binder
binds | B1
binds | B2
binds | B3

Target: T3, ApoE4 amino acids 24-164, expressed on …
Assay: as above
Protocol: as §1

binding result | Binder
binds | B1
binds | B2
binds | B3

Target: T4, ApoE4 amino acids 54-164, expressed on …
Assay: as above
Protocol: as §1

binding result | Binder
binds | B1
binds | B2
binds | B3

Each binder was assayed against T5, recombinant alipidated human ApoE4 (human, UniProt P02649 19-317) (assay: direct ELISA on coated recombinant alipidated ApoE (0.5 ug/ml)).
T5 construct: mature; full length recombinant protein made in E. coli or bought; biotinylated for SPR; position 112 is counted on the mature protein, not on the precursor entry; also called recApoE; non-lipidated ApoE4
Outline: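 Antibody dose-response curves were built by HRP-conjugated goat anti-mouse IgG detection of anti-ApoE antibodies bound to blocked plates. The coat was full-length alipidated recombinant ApoE at 0.5 μg/ml, applied overnight, either E. coli-expressed and purified or commercially sourced.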
Target sequence in this assay (P02649 19-317 C130R): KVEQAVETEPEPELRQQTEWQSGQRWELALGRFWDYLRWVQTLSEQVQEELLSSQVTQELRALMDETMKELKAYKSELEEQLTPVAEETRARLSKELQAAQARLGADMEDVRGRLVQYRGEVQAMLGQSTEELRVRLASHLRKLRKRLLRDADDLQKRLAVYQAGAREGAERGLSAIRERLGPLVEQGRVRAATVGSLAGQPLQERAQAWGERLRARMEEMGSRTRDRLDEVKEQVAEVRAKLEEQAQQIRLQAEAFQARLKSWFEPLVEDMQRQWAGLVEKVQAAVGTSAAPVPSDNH

EC50 [pM] | Binder
440 | B1
620 | B2
260 | B3

These binders were tested against T5, recombinant alipidated human ApoE4 (assay: ELISA, plate coated with 0.5 ug/ml recombinant apoE4, HRP goat anti-mouse detection, OD450).
Protocol: ELISA plates were coated with 0.5 μg/ml of recombinant apoE2 (square), apoE3 (open circle), or apoE4 (closed circle). Then different concentrations of (A) HJ151, (B) HJ153, (C) HJ154, or (D) HJ156 were loaded on the plates. Horse-radish peroxidase labeled goat anti-mouse secondary antibodies were used to detect binding. […] HJ151 is specific for ApoE4 and HJ156 binds only ApoE3 and ApoE4. FIG. 5E-H are graphs depicting surface plasmon resonance profiles for various antibodies. Anti-ApoE antibodies were serially diluted 3-fold (starting at 100 nM for HJ153 (E), and 1000 nM for HJ151 (F), and […] (G)) for detection of binding to biotinylated-recombinant apoE4 captured on a streptavidin chip. Samples were injected at a flow rate of 30 μl/minute. (H) Apparent KD values of HJ151, HJ153 and HJ156 were calculated based on the SPR experiment.
ELISA plates were coated with 0.5 μg/ml of recombinant apoE2, apoE3, or apoE4. Then different concentrations of HJ151 (FIG. 5A), HJ153 (FIG. 5B), HJ154 (FIG. 5C), or HJ156 (FIG. 5D) were loaded on the plates. Horse-radish peroxidase labeled goat anti-mouse secondary antibodies were used to detect binding. […] HJ151 is specific for ApoE4 and HJ156 binds only ApoE3 and ApoE4. Surface plasmon resonance profiles for various antibodies was also performed.

EC50 (read off the curve) [pM] | Binder
~500 | B1
~1000 | B2
~300 | B3

What follows are binders tested against T5, recombinant alipidated human ApoE4 (assay: SPR (Biacore T200), biotinylated ApoE4 captured on anti-biotin mAb chip, antibody injected, 1:1 fit).
Outline: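 Biotinylated recombinant alipidated human ApoE4 (E. coli-expressed or commercial) captured on immobilized anti-biotin mAb; antibody serial dilutions injected at 30 μl/min, e.g. 3-min association, 10-min dissociation. Responses reference-subtracted against irrelevant-IgG flow cell; kinetics from 1:1 Langmuir simultaneous fit of Kon and Koff.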
Target sequence in this assay (P02649 19-317 C130R): as above

Kd [pM] | koff [s⁻¹] | kon [M⁻¹ s⁻¹] | Binder
60200 | 0.00119 | 19700 | B1
216000 | 0.00449 | 20700 | B2
675 | 0.000348 | 516000 | B3
